# Starred links: 1 amine or outer side, 2 acyl side, 3 side chain; linkers in the order of their positions; H or OH if unused. Non-standard residues stand in square brackets, D forms with d. Groups on a side chain read outwards from the residue. No end group written: not given here. *: point of attachment. C18 diacid = O=C(O)CCCCCCCCCCCCCCCCC(=O)*; γGlu = O=C(O)[C@H](CCC(=O)[*:2])N[*:1]; Palmitoyl = CCCCCCCCCCCCCCCC(=O)*; AEEA = NCCOCCOCC(=O)O; Aib = CC(C)(N)C(=O)O
# B1: peptide of SEQ ID NO: 21 (peptide)
# peptide: IVLSLD[dV]PTKLK([γGlu-Palmitoyl])QKLLKQERQRKE[Aib]EQAEKNKRILERV-NH2
# modifications: N-terminus assumed
# SMILES: CCCCCCCCCCCCCCCC(=O)N[C@@H](CCC(=O)NCCCC[C@H](NC(=O)[C@H](CC(C)C)NC(=O)[C@H](CCCCN)NC(=O)[C@@H](NC(=O)[C@@H]1CCCN1C(=O)[C@H](NC(=O)[C@H](CC(=O)O)NC(=O)[C@H](CC(C)C)NC(=O)[C@H](CO)NC(=O)[C@H](CC(C)C)NC(=O)[C@@H](NC(=O)[C@@H](N)[C@@H](C)CC)C(C)C)C(C)C)[C@@H](C)O)C(=O)N[C@@H](CCC(N)=O)C(=O)N[C@@H](CCCCN)C(=O)N[C@@H](CC(C)C)C(=O)N[C@@H](CC(C)C)C(=O)N[C@@H](CCCCN)C(=O)N[C@@H](CCC(N)=O)C(=O)N[C@@H](CCC(=O)O)C(=O)N[C@@H](CCCNC(=N)N)C(=O)N[C@@H](CCC(N)=O)C(=O)N[C@@H](CCCNC(=N)N)C(=O)N[C@@H](CCCCN)C(=O)N[C@@H](CCC(=O)O)C(=O)NC(C)(C)C(=O)N[C@@H](CCC(=O)O)C(=O)N[C@@H](CCC(N)=O)C(=O)N[C@@H](C)C(=O)N[C@@H](CCC(=O)O)C(=O)N[C@@H](CCCCN)C(=O)N[C@@H](CC(N)=O)C(=O)N[C@@H](CCCCN)C(=O)N[C@@H](CCCNC(=N)N)C(=O)N[C@H](C(=O)N[C@@H](CC(C)C)C(=O)N[C@@H](CCC(=O)O)C(=O)N[C@@H](CCCNC(=N)N)C(=O)N[C@H](C(N)=O)C(C)C)[C@@H](C)CC)C(=O)O
# B2: peptide of SEQ ID NO: 161 (peptide)
# peptide: Ac-IVLSLD[dV]PIKLK([AEEA-AEEA-γGlu-C18 diacid])QILLEQERQE[Aib]EREQAEKNEQILEQV-NH2
# SMILES: CC[C@H](C)[C@H](NC(C)=O)C(=O)N[C@H](C(=O)N[C@@H](CC(C)C)C(=O)N[C@@H](CO)C(=O)N[C@@H](CC(C)C)C(=O)N[C@@H](CC(=O)O)C(=O)N[C@@H](C(=O)N1CCC[C@H]1C(=O)N[C@H](C(=O)N[C@@H](CCCCN)C(=O)N[C@@H](CC(C)C)C(=O)N[C@@H](CCCCNC(=O)COCCOCCNC(=O)COCCOCCNC(=O)CC[C@H](NC(=O)CCCCCCCCCCCCCCCCC(=O)O)C(=O)O)C(=O)N[C@@H](CCC(N)=O)C(=O)N[C@H](C(=O)N[C@@H](CC(C)C)C(=O)N[C@@H](CC(C)C)C(=O)N[C@@H](CCC(=O)O)C(=O)N[C@@H](CCC(N)=O)C(=O)N[C@@H](CCC(=O)O)C(=O)N[C@@H](CCCNC(=N)N)C(=O)N[C@@H](CCC(N)=O)C(=O)N[C@@H](CCC(=O)O)C(=O)NC(C)(C)C(=O)N[C@@H](CCC(=O)O)C(=O)N[C@@H](CCCNC(=N)N)C(=O)N[C@@H](CCC(=O)O)C(=O)N[C@@H](CCC(N)=O)C(=O)N[C@@H](C)C(=O)N[C@@H](CCC(=O)O)C(=O)N[C@@H](CCCCN)C(=O)N[C@@H](CC(N)=O)C(=O)N[C@@H](CCC(=O)O)C(=O)N[C@@H](CCC(N)=O)C(=O)N[C@H](C(=O)N[C@@H](CC(C)C)C(=O)N[C@@H](CCC(=O)O)C(=O)N[C@@H](CCC(N)=O)C(=O)N[C@H](C(N)=O)C(C)C)[C@@H](C)CC)[C@@H](C)CC)[C@@H](C)CC)C(C)C)C(C)C
# B3: peptide of SEQ ID NO: 19 (peptide)
# peptide: IVLSLD[dV]PTKLK([γGlu-Palmitoyl])QKLLKQERQR[Aib]EREQAEKNKRILERV-NH2
# modifications: N-terminus assumed
# SMILES: CCCCCCCCCCCCCCCC(=O)N[C@@H](CCC(=O)NCCCC[C@H](NC(=O)[C@H](CC(C)C)NC(=O)[C@H](CCCCN)NC(=O)[C@@H](NC(=O)[C@@H]1CCCN1C(=O)[C@H](NC(=O)[C@H](CC(=O)O)NC(=O)[C@H](CC(C)C)NC(=O)[C@H](CO)NC(=O)[C@H](CC(C)C)NC(=O)[C@@H](NC(=O)[C@@H](N)[C@@H](C)CC)C(C)C)C(C)C)[C@@H](C)O)C(=O)N[C@@H](CCC(N)=O)C(=O)N[C@@H](CCCCN)C(=O)N[C@@H](CC(C)C)C(=O)N[C@@H](CC(C)C)C(=O)N[C@@H](CCCCN)C(=O)N[C@@H](CCC(N)=O)C(=O)N[C@@H](CCC(=O)O)C(=O)N[C@@H](CCCNC(=N)N)C(=O)N[C@@H](CCC(N)=O)C(=O)N[C@@H](CCCNC(=N)N)C(=O)NC(C)(C)C(=O)N[C@@H](CCC(=O)O)C(=O)N[C@@H](CCCNC(=N)N)C(=O)N[C@@H](CCC(=O)O)C(=O)N[C@@H](CCC(N)=O)C(=O)N[C@@H](C)C(=O)N[C@@H](CCC(=O)O)C(=O)N[C@@H](CCCCN)C(=O)N[C@@H](CC(N)=O)C(=O)N[C@@H](CCCCN)C(=O)N[C@@H](CCCNC(=N)N)C(=O)N[C@H](C(=O)N[C@@H](CC(C)C)C(=O)N[C@@H](CCC(=O)O)C(=O)N[C@@H](CCCNC(=N)N)C(=O)N[C@H](C(N)=O)C(C)C)[C@@H](C)CC)C(=O)O
# B4: peptide of SEQ ID NO: 160 (peptide)
# peptide: Ac-IVLSLD[dV]PIKLK([AEEA-AEEA-γGlu-C18 diacid])QILLEQERQE[Aib]EREQAETNKQILEQV-NH2
# SMILES: CC[C@H](C)[C@H](NC(C)=O)C(=O)N[C@H](C(=O)N[C@@H](CC(C)C)C(=O)N[C@@H](CO)C(=O)N[C@@H](CC(C)C)C(=O)N[C@@H](CC(=O)O)C(=O)N[C@@H](C(=O)N1CCC[C@H]1C(=O)N[C@H](C(=O)N[C@@H](CCCCN)C(=O)N[C@@H](CC(C)C)C(=O)N[C@@H](CCCCNC(=O)COCCOCCNC(=O)COCCOCCNC(=O)CC[C@H](NC(=O)CCCCCCCCCCCCCCCCC(=O)O)C(=O)O)C(=O)N[C@@H](CCC(N)=O)C(=O)N[C@H](C(=O)N[C@@H](CC(C)C)C(=O)N[C@@H](CC(C)C)C(=O)N[C@@H](CCC(=O)O)C(=O)N[C@@H](CCC(N)=O)C(=O)N[C@@H](CCC(=O)O)C(=O)N[C@@H](CCCNC(=N)N)C(=O)N[C@@H](CCC(N)=O)C(=O)N[C@@H](CCC(=O)O)C(=O)NC(C)(C)C(=O)N[C@@H](CCC(=O)O)C(=O)N[C@@H](CCCNC(=N)N)C(=O)N[C@@H](CCC(=O)O)C(=O)N[C@@H](CCC(N)=O)C(=O)N[C@@H](C)C(=O)N[C@@H](CCC(=O)O)C(=O)N[C@H](C(=O)N[C@@H](CC(N)=O)C(=O)N[C@@H](CCCCN)C(=O)N[C@@H](CCC(N)=O)C(=O)N[C@H](C(=O)N[C@@H](CC(C)C)C(=O)N[C@@H](CCC(=O)O)C(=O)N[C@@H](CCC(N)=O)C(=O)N[C@H](C(N)=O)C(C)C)[C@@H](C)CC)[C@@H](C)O)[C@@H](C)CC)[C@@H](C)CC)C(C)C)C(C)C
# Biological target: T1, anti-target CRF1R receptor (UniProt P34998 24-415, limits assumed)
# T1 sequence (looked up): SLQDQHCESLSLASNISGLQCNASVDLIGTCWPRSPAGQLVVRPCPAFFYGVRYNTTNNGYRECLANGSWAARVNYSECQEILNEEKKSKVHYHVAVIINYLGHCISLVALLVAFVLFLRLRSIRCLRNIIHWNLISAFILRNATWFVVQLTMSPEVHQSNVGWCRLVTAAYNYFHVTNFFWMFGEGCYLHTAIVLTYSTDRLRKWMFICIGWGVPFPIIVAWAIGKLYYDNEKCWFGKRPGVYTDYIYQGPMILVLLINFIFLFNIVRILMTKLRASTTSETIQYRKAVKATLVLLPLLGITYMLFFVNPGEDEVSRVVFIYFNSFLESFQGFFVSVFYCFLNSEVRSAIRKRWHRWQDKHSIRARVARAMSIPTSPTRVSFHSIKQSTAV
# Experiment: cell-based or functional assay
Binder,"EC50[nM] 0% HSA (cAMP, CRF1R-overexpression CHO cells) [nM]","Emax (%) (cAMP, CRF1R-overexpression CHO cells)"
B1,618,59.2
IVLSLD[dV]PTKLK([γGlu-Palmitoyl])QKLLKQERQRKEREQAEKNVRILERV-NH2 (not fully specified; printed as IVLSLDvPTKLK*QKLLKQERQRKEREQAEKNVRILERV-NH2) [peptide of SEQ ID NO: 32],> 1000,27
B2,> 1000,3.42
B3,571,57.4
B4,> 1000,20.8

# — patent publication US12679878B2, “CRF2 receptor agonists and their use in therapy” (SANOFI, priority 2020, dated 2026)
